This passage reports protein stability index results from the supplement of paper PMC10724198.

± gives the standard deviation of the averaged measurements.
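Note: PSI is a weighted mean of sequencing reads over stability bins, variants kept only with over 10 reads, mCherry proximal and sfGFP distal, peptide attached via GGGS linker.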

The test system of this series is Saccharomyces cerevisiae. The series is described as follows: protein stability index of tFT-peptide fusion (C-terminal peptide) (PSI (0-1 scale)); higher = more stable (slower turnover). The conditions noted are these: genetic background: wild type; temperature: 30 C.
As for RDSLGGRSMHGW, the protein stability index worked out at 0.682 ± 0.029. As for RDVWPFTGKRAL, the protein stability index is 0.672 ± 0.014. REEREISGNLLV yielded a protein stability index of 0.7899 ± 0.0075. With REGKGREQGRKK the figure was 0.616 ± 0.053. Next, REGKIVNNKNEN: 0.687 ± 0.077; REGVELTRPVTC: 0.696 ± 0.041.

On to REKDMIKSGIKS, for which the protein stability index was 0.724 ± 0.02. With REMDDRLEQSVP the figure was 0.743 ± 0.017. Next, REPPFFRLSPQV: 0.722 ± 0.042. Next, REQKTKDKKKRQ: 0.703 ± 0.024; RERNNISVKGKL: 0.679 ± 0.049; RERPHSDYLACH: 0.691 ± 0.026. The sequence RESTKNETSGKK showed a protein stability index of 0.632 ± 0.04. For REVIGFLSYWKG, the protein stability index was 0.711 ± 0.14. Sequence RFCRAFSGALSR displayed a protein stability index of 0.805 ± 0.021. With RFDGLTTALDSV the figure was 0.669 ± 0.04; with RFFPPPARPSPF, 0.732 ± 0.025.

RFLMGYEVNCAV yielded a protein stability index of 0.548 ± 0.015. With RFMAFGDKEILR the figure was 0.662 ± 0.033.

RFPLCLHLPLLL returned a protein stability index of 0.55 ± 0.012. In the case of RFPLSLRIPLPK, the protein stability index worked out at 0.63 ± 0.034. Next, RFSPARPASPPP: 0.687 ± 0.036; RFWGWCSAVLSS: 0.622 ± 0.056. Turning to RGAHVTRPGTRD, the protein stability index was found to be 0.66 ± 0.034. On to RGALGVVWAGLD, for which the protein stability index was determined as 0.638 ± 0.021.

RGARGIGVRLRV had a protein stability index of 0.651 ± 0.026. With RGASDYARMSAF the figure was 0.7047 ± 0.0037. RGDGAGQARGVV displayed a protein stability index of 0.684 ± 0.053. For the sequence RGDGVRGGKNGR, the protein stability index came out at 0.689 ± 0.034. With RGEVWVEVALGV the figure was 0.642 ± 0.021. RGFSLSCCERSI: the protein stability index was found to be 0.749 ± 0.026.

In the case of RGGAGRRWGRGK, the protein stability index came out at 0.631 ± 0.073. For RGGGGGGGAAGS, the protein stability index was 0.657 ± 0.037. With RGGGGRGFAGRK the figure was 0.608 ± 0.038; with RGGGLGGLRSRA, 0.823 ± 0.081; with RGGGRGVWGHVV, 0.607 ± 0.0063. Next, RGGGWVLEVLLG: 0.5195 ± 0.0024. Next, RGGWGGGDCVGA: 0.688 ± 0.09; RGGWRVTNKKNI: 0.645 ± 0.023; RGKSPPPSSPPL: 0.684 ± 0.024.

RGLRRIPDAPPH: the protein stability index is 0.757 ± 0.028. RGLSCAAYFSGA gave a protein stability index of 0.727 ± 0.028. With RGPPPTSPPSPP the figure was 0.664 ± 0.013.

RGPSSPTPRPAA had a protein stability index of 0.77 ± 0.13. With RGRGRGGPLSGG the figure was 0.731 ± 0.017; with RGRGRISGSWGT, 0.718 ± 0.013; with RGRGRVRPRRKR, 0.6831 ± 0.0011. With RGRLVVGAGRED the figure was 0.697 ± 0.049; with RGRQRSDPPTRL, 0.717 ± 0.061. RGRWLKNARLSM displayed a protein stability index of 0.634 ± 0.065. Next, RGRWRVGWGVGD: 0.67 ± 0.017.

RGRWVDWLSFTF displayed a protein stability index of 0.7278 ± 0.0022.

As to RGSPFTAWSVLR, the protein stability index came to 0.753 ± 0.019. For RGSPPDPRGRAG, the protein stability index was found to be 0.685 ± 0.074. With RGSRFVAGGGSV the figure was 0.702 ± 0.038; with RGSVSCLQLIGC, 0.651 ± 0.034. RGSYLAFRVYGP yielded a protein stability index of 0.648 ± 0.03. As to RGVCVVGGCWLV, the protein stability index came to 0.609 ± 0.016. As to RGVGEGFRAGCG, the protein stability index is 0.672 ± 0.0098. The sequence RGVIWLVCGGPC had a protein stability index of 0.54 ± 0.032.

RGVVGFVGVVRE returned a protein stability index of 0.6445 ± 0.0027. Next, RGVWWWWGVAGA: 0.749 ± 0.17. Next, RGWGGGRKVSVG: 0.652 ± 0.036; RGWKDQYIDADR: 0.689 ± 0.012; RGWRYRAEGFRG: 0.663 ± 0.022. Next, RHGRDNPSGRLN: 0.6902 ± 0.0046; RHRFDHWGPGPW: 0.72 ± 0.055; RHVCPLLYPCSS: 0.635 ± 0.036. As to RIAARAIISRGG, the protein stability index was determined as 0.657 ± 0.021. Consider RILSCGCVCFVM, for which the protein stability index worked out at 0.702 ± 0.031. Next, RIMFVGYPLDWL: 0.674 ± 0.041; RIPSDLTLNPRG: 0.669 ± 0.05.

RISWLKEATAIK displayed a protein stability index of 0.689 ± 0.019. Next, RITSSLCPPLLR: 0.695 ± 0.013; RKDNRRIMIKKR: 0.648 ± 0.015. With RKGFMQRHDTLD the figure was 0.6749 ± 0.0019; with RKGVSLAILLGP, 0.67 ± 0.055. With RKKDHKSIIQII the figure was 0.57779 ± 0.00015; with RKKKRKKKKTER, 0.647 ± 0.041; with RKKNEKKEDNKK, 0.747 ± 0.12.
